Laboratory results: paper PMC6715661, “Cardiac MLC2 kinase is localized to the Z-disc and interacts with α-actinin2” (Scientific Reports, 2019)

Target: T1, Myc-α-actinin2, full length, expressed in HEK293 cells (mouse, UniProt Q9JI91 1-894)
T1 construct: α-actinin2, cloned by RT-PCR from RNA of neonatal mouse hearts into pAdlox (pAdlox-Myc-α-actinin2), full length; also called Myc-tagged full-length α-actinin2; source: HEK293 cells, exogenous expression, in lysate (co-IP); purified from HEK293 cells (BLI)
Assay: BLI; Octet RED384, 30 °C; biotinylated anti-Myc antibody on streptavidin biosensors captures Myc-α-actinin2 (10 μg/ml, 100 nM); HA-cMLCK in solution, two-fold dilutions from 14 to 1.75 μg/ml; 20 mM Tris, 150 mM NaCl, 0.002% Tween, pH 7.3; global fit, 2:1 heterogeneous ligand analysis
Settings: both partners purified

T1 sequence (Q9JI91 whole entry): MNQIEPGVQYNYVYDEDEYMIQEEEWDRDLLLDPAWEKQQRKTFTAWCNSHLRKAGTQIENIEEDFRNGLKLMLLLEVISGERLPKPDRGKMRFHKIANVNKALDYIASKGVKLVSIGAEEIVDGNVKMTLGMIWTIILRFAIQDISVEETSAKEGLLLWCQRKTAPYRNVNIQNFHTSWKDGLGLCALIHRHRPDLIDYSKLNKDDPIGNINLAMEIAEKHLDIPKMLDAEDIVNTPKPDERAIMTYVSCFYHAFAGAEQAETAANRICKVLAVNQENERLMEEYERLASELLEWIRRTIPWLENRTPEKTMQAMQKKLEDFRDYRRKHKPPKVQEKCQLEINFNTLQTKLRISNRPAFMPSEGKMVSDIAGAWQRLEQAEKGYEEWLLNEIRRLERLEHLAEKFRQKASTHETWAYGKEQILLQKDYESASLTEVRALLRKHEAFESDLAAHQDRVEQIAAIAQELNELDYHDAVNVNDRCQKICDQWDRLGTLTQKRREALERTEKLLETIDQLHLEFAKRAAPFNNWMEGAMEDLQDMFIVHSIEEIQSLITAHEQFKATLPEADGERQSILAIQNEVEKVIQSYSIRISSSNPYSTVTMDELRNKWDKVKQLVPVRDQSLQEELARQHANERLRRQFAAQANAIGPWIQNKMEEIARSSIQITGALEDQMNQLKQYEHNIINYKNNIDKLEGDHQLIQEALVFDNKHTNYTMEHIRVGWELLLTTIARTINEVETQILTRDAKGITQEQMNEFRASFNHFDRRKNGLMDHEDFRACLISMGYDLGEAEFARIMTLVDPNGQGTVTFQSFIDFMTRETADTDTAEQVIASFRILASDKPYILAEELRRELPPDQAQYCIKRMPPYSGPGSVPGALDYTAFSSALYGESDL

B1: HA-cMLCK, full length, expressed in HEK293 cells (enzyme, mouse, UniProt Q3UIZ8 1-795, looked up)
chain: MSGVSEEDPEGLAPQGLPALGGACLATMDKKLNVLTEKVDRLLHFQEDVTEKLQCVCQGMDHLEQDLHRLEASRELSLAGSGSTPPTTAQAAWPEVLELVRAVRQEGAQHGARLEALFKMVVAVDRAITLVGSTFQNSKVADFIMQGTVPGRKGSLADGPEENKEQAEVAGVKPNHVLTTGGVQADASRTLWEESQKEDIPVRTVEGLPLIINTSLKGADLTQAGASLRQGVEVLGPGQVPLPTEAESRLPETASENTGATLELSVAIDRISEVLTSLKMSQGGGQETSSSKPDCWLSEEAMRLSSGPLPQPLGPLTPDSDIHSGDALPRIPINMQEMATPGELLETQSGSPIGSAEAPGLGTVLEDQIPKGARPFPPLPKRSSNNGGMSAEEEIGSGAEPMRGPSLATRDWRDETVGTTDLQQGIDPGAVSPEPGKDHAAQGPGRTEAGRLSSAAEAAIVVLDDSAAPPAPFEHRVVSIKDTLISAGYTVSQHEVLGGGRFGQVHRCTERSTGLALAAKIIKVKNVKDREDVKNEVNIMNQLSHVNLIQLYDAFESKSSFTLIMEYVDGGELFDRITDEKYHLTELDVVLFTRQICEGVHYLHQHYILHLDLKPENILCVSQTGHQIKIIDFGLARRYKPREKLKVNFGTPEFLAPEVVNYEFVSFPTDMWSVGVITYMLLSGLSPFLGETDAETMNFIVNCSWDFDADTFKGLSEEAKDFVSRLLVKEKSCRMSATQCLKHEWLSHLPAKASGSNVRLRSQQLLQKYMAQSKWKKHFHVVTAVNRLRKFPTCP
notes: cardiac myosin light chain kinase (cMLCK), mouse, full length (residues to 795 by the printed deletion constructs); also called HA-MLCK; HA-full-length cMLCK; source: HEK293 cells, exogenous expression, in lysate (co-IP); purified (BLI)
  Kd: 13.4 nM
  koff: 0.000341 s⁻¹
  kon: 25800 M⁻¹ s⁻¹
